Experiments:
[1] = biological target: T1, recombinant endotrophin protein (Homo sapiens, UniProt P12111); experiment: Affinity measurement with BLI (Octet RED96); details: Octet (96-Red), 1:1 binding model
T1 construct: the latter consisting of 77 amino acids at the carboxy-terminal of the COL6α3 chain; CD33 signal peptide (N, cleaved yes); His-tag with EK-cleavage site (N, cleaved yes); purchased Sino Biological, Beijing, China; host or cells: HEK293
Protocol: FIGS. 12A-B. Kinetic sensorgrams for ETP-mAb4 (FIG. 12A) and each of the humanized antibodies (FIG. 12B). […]
For antibody affinity measurement, antibody (30 μg/mL) was loaded onto the protein A biosensors for 4 min. Following a short baseline in kinetics buffer, the loaded biosensors were exposed to a series of recombinant endotrophin protein at 0.1-200 nM and background subtraction was used to correct for sensor drifting. All experiments were performed with shaking at 1,000 rpm. Background wavelength shifts were measured from reference biosensors that were loaded only with antibody. Kinetic sensorgrams for each antibody are shown in FIGS. 12A&B. ForteBio's data analysis software was used to fit the data to a 1:1 binding model to extract an association rate and dissociation rate. The Kd was calculated using the ratio of koff/kon and the estimated values of […] for endotrophin ETP-mAb4 and 4 humanized ETP-hMab4 antibodies are listed in Table 4.

MCF7 breast cancer cells = experiment: MCF7 cisplatin/endotrophin cell survival (MTS) neutralization assay; assay type: cell-based, human
Protocol: FIGS. 3A-D. Generation and screening of anti-human endotrophin. (FIG. 3A) MCF7 breast cancer cells (20,000 cells) were plated into a 96-well plate. Cells were then treated with 10 μm cisplatin, 10 μm cisplatin/100 ng/mL endotrophin, and 10 μm cisplatin/100 ng/mL endotrophin/10 μg/mL ETPmAb4 for 24 hr. Cell survival was measured using a CellTiter One Solution Cell Proliferation Assay. Statistical significance of the curve fit parameters was tested using the extra sum of squares F test with P<0.05 considered significant. Goodness of curve fit is described using r2. Mean±SEM, n=3. (FIG. 3B) ETP transfected MCF7 cells (100,000 cells) were plated into a 24-well plate with 500 μL media. Then 4 μL of supernatant was loaded for Western blotting. It is estimated that approximately 1 ng of ETP was loaded, compared with the standard ETP (2 ng band). The concentration yields approximately 0.052 pg secreted ETP/hr/cell. […] ETP expression was determined by qRT-PCR and normalized to GAPDH. […] Migrated cells were counted after a 2 hr incubation. In all cases, data was represented as mean±SD, and statistical significance (*** p<0.0001) was calculated using an unpaired Student's t-test.
MTS assay screening endotrophin monoclonal antibodies. […] Cell survival was measured using a CellTiter One Solution Cell Proliferation Assay. […] The plate was then read at 490 nm using a Sunrise microplate reader (TECAN). […]

SC macrophage cells = experiment: SC macrophage trans-well migration towards ETP transfected MCF7 cells; assay type: cell-based, human; details: 10, 2, 0.4, 0.08 μg/mL antibody, 2 hr
Protocol: FIGS. 3A-D. Generation and screening of anti-human endotrophin. (FIG. 3A) MCF7 breast cancer cells (20,000 cells) were plated into a 96-well plate. Cells were then treated with 10 μm cisplatin, 10 μm cisplatin/100 ng/mL endotrophin, and 10 μm cisplatin/100 ng/mL endotrophin/10 μg/mL ETPmAb4 for 24 hr. Cell survival was measured using a CellTiter One Solution Cell Proliferation Assay. Statistical significance of the curve fit parameters was tested using the extra sum of squares F test with P<0.05 considered significant. Goodness of curve fit is described using r2. Mean±SEM, n=3. (FIG. 3B) ETP transfected MCF7 cells (100,000 cells) were plated into a 24-well plate with 500 μL media. Then 4 μL of supernatant was loaded for Western blotting. It is estimated that approximately 1 ng of ETP was loaded, compared with the standard ETP (2 ng band). The concentration yields approximately 0.052 pg secreted ETP/hr/cell. (FIG. 3C) Total RNA was extracted from MCF7, HCC1395, MDAMB231, ZR-75 and MDAMB453 cells. ETP expression was determined by qRT-PCR and normalized to GAPDH. […] Migrated cells were counted after a 2 hr incubation. In all cases, data was represented as mean±SD, and statistical significance (*** p<0.0001) was calculated using an unpaired Student's t-test.
Primary Culture of Human Cells and Transwell Assays. […] Migrated cells were then counted after 2 hr. […]

T1 sequence (P12111 3101-3177): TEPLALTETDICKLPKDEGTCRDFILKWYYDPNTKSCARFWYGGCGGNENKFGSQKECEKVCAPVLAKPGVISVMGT

- kdis [1]: 2.49 E−04 1/s
- kon [1]: 1.42 E+05 1/Ms
B1: ETP-mAb4: rabbit monoclonal anti-human endotrophin antibody selected for further study; VH SEQ ID NO: 125, VL SEQ ID NO: 126 (antibody, V domains shown)
VH: SSRVKESGGDLVKPGASLTLTCKASGFSFSSGYYICWVRQAPGKGLEWIACIYGGNNNPYYANWVNGRFTTSKTSSTTVTLQMTNLTGADTATYFCARKDINIGGAYELWGPGTLVTISS
VL: ELVMTQTPASVSEPVGGTVTINCQASQSISSSYLSWYQQKPGQPPKLLIYKASTLASGVPSRFKGSGSGTQFSLTISDLECADAATYYCQYSDWANSYGNAFGGGTEVVVK
- neutralization of endotrophin-mediated MCF-7 cell survival (MCF7 breast cancer cells; 10 μm cisplatin, 100 ng/mL endotrophin, 10 μg/mL antibody, 24 hr): completely neutralize
- restoration of cisplatinum susceptibility of endotrophin-exposed MCF-7 cells (MCF7 breast cancer cells; cisplatin plus endotrophin): forced the cells to become susceptible to cisplatinum, in a dose-dependent manner
- migration of SC macrophages into the bottom chamber (SC macrophage cells): effectively prevented the migration

From US12331110B2, “Monoclonal antibodies against endotrophin and the use thereof” (THE BOARD OF REGENTS OF THE UNIVERSITY OF TEXAS SYSTEM, priority 2018, dated 2025)
